# Measured values from patent US5512455A, “Atrial natriuretic peptide receptor protein” (Scios Nova, Inc., priority 1987, dated 1996).
# Ends that are not written are not given here.
# Assays:
# [1] = target: T1, purified bovine vascular ANP receptor protein (Bos taurus, UniProt P10730); assay: Competitive binding of 125I-ANP(4-28) against ANP peptides to purified ANP receptor protein; details: for relative Ki value: purified bovine receptor, competition with 125I-ANP(4-28)
# T1 construct: mature receptor protein is a 496 amino acid polypeptide, expressed as a propeptide; endogenous in cells; host or cells: bovine aortic smooth muscle (BASM) cells, cultured
# T1 sequence (P10730 42-537): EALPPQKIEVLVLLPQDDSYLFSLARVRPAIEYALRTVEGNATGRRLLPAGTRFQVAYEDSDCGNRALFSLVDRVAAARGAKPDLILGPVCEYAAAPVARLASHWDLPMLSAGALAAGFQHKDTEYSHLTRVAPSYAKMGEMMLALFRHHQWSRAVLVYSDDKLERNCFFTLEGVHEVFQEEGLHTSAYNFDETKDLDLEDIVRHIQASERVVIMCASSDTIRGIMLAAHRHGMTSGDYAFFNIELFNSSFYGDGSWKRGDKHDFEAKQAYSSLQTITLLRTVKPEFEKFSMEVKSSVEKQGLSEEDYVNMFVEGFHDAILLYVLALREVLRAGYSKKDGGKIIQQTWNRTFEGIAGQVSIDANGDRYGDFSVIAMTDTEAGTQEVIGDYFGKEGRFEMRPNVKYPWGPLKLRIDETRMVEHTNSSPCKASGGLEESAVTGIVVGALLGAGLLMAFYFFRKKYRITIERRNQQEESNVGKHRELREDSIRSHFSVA
# Method: To characterize the purified native bovine vascular ANP receptor protein further, its activity as a receptor in vitro was studied. The following ANP peptides, described in Schenk et al. (II), supra, were employed; ANP(4-28), ANP(7-28), and ANP(5-25). Bmax, Ki and Kd were calculated by standard methods. See, e.g., Scatchard (1949) Ann. N.Y. Acad. Sci., pp. 600-672. […] This corresponds to a stoichiometry of ANP to receptor protein of 1:3/subunit, or 0.7:1/holoreceptor.
# An affinity matrix was made by coupling 40 mg human ANP(4-28) to 4 ml of Affi-gel 10 (Bio-Rad) as described by the manufacturer. Solubilized ANP receptor was adjusted to 10 mM CaCl2 and MgCl2 and filtered through […] (type GE, Millipore). The filtrate was chromatographed on the ANP-agarose column at a flow rate of 0.5 ml/min at 21° C. The column was washed with binding buffer (100 mM Tris HCl, pH 7.50; 100 mM NaCl; 4 mg/ml C12 E8; 10 mM CaCl2; and 10 mM MgCl2) until the effluent reached A280 =0.000. Then 6.0 ml of elution buffer (10 mM Na acetate, pH 5.00:100 mM NaCl; 4 mg/ml C12 E8; 10 mM CaCl2; 10 mM MgCl2) was added and the eluent was placed on ice and immediately adjusted to 37% (v/v) acetone. The solution was centrifuged at 4,000×g for 10 min at 4° C. and thoroughly aspirated. The pellet was resuspended in 3.0 ml of binding buffer and analyzed for purity, receptor binding activity, and amino acid sequence.
# The tested ANP peptide included hANP(4-28), hANP(7-28) and atriopeptin I. Gamma-melanocyte stimulating hormone ([…]) was employed as a negative control. […] This corresponds to a stoichiometry of ANP to receptor protein of 1:3 kd subunit, or 0.7:1.0/holoreceptor.
# Additional studies were conducted with ANP peptides.
# [2] = target: T2, ANP receptor (pANPRc-1/4) expressed in Xenopus oocytes (Bos taurus, UniProt P10730); assay: ANP binding to recombinant ANP receptor (pANPRc-1/4) in solubilized membranes of mRNA-injected Xenopus oocytes; set-up: species or system bovine
# T2 construct: contains a 2290 base pair DNA insert which includes the entire open reading frame; expressed in transfected cells; host or cells: Xenopus oocytes injected with synthetic RNA from pANPRc-1/4; solubilized crude membranes
# T2 sequence (P10730 42-537): T1 sequence (P10730 42-537)
# Method: The receptor coding sequence from pANPRc-1/4 was cloned into pGEM1 (ProMega, Madison, Wis.) and RNA prepared according to the supplier's instructions. Oocyte preparation and injection were performed essentially as described, Gurdon et al. (1983) Meth. Enzymol. 101:370-386. Typically, each oocyte was injected with 50 nl 50 ng synthetic RNA followed by incubation in modified Barth's saline at 21° C. for 48 hr. Crude membranes were prepared and solubilized in receptor binding buffer (2 mg/ml C12 E8, 100 mM NaCl, 10 mM MgCl2, 10 mM CaCl2 and 100 mM Tris:HCl; pH 7.5). Binding was measured after incubating 0.5 ml of membrane suspension containing 10 μg protein with 2×10^5 cpm of ^125 I! […] (1×10^3 cpm/fmol) and the indicated concentration of unlabeled ANP analog for 30 min at 21° C. Reactions were terminated and free peptide separated from bound by precipitation with acetone (40% v/v final). Counts bound in the absence of unlabeled ligand were 2048±374 cpm while nonspecific binding (counts bound in the presence of 20 nM rANP) were 592±89 cpm.
# Only low level, nonspecific binding was detected in membranes of uninfected, or mock injected eggs. […] Both […] and the truncated analog […] for binding. The Ii apparent obtained from the experiment was 0.27 nM for both analogs.
Substance,"Bmax for receptor binding ([1]; computer analysis of binding data, b45 adds '75% receptor activity')","Kd ([1]; computer analysis of binding data, purified receptor)",relative Ki value [1],effect on binding of radiolabeled ANP ([2]; even at 100 μM),competition for binding ([2]; solubilized oocyte membranes)
"ANP(4-28): ANP peptide described in Schenk et al. (II) (RSSCFGGRMDRIGAQSGLGCNSFRY; ends and bridges not checked; cysteine pairing not given here; UniProt P01160 127-151, looked up, fragment)",5.7 nmol/mg protein,0.3 nM,0.3 nM,,
"Bombesin: bombesin, an unrelated tetradecapeptide (Peninsula Labs)",,,,no effect on binding,did not compete for binding
"ANP(7-28): ANP peptide described in Schenk et al. (II) (CFGGRMDRIGAQSGLGCNSFRY; ends and bridges not checked; cysteine pairing not given here; UniProt P01160 130-151, looked up, fragment)",,,1.1 nM,,
"ANP(5-25): ANP peptide described in Schenk et al. (II) (SSCFGGRMDRIGAQSGLGCNS; ends and bridges not checked; cysteine pairing not given here; UniProt P01160 128-148, looked up, fragment)",,,1.12 nM,,
